Test results: publication PMC4234293, “Galactosyltransferases from Arabidopsis thaliana in the biosynthesis of type II arabinogalactan: molecular interaction enhances enzyme activity” (BMC Plant Biology, 2014)

B1: AtGALT29A (Arabidopsis thaliana beta-galactosyltransferase 1 from family GT29, At1g08280), C-terminal mCer3-HA or YFP-HA fusion (enzyme, UniProt Q9SGD2 1-398, looked up)
chain: MKRSVRPLFSALLFAFFAATLICRVAIRRSSFSFASAIAELGSSGLMTEDIVFNETLLEFAAIDPGEPNFKQEVDLISDYDHTRRSHRRHFSSMSIRPSEQQRRVSRDIASSSKFPVTLRSSQAYRYWSEFKRNLRLWARRRAYEPNIMLDLIRLVKNPIDVHNGVVSISSERYLSCAVVGNSGTLLNSQYGDLIDKHEIVIRLNNAKTERFEKKVGSKTNISFINSNILHQCGRRESCYCHPYGETVPIVMYICQPIHVLDYTLCKPSHRAPLLITDPRFDVMCARIVKYYSVKKFLEEKKAKGFVDWSKDHEGSLFHYSSGMQAVMLAVGICEKVSVFGFGKLNSTKHHYHTNQKAELKLHDYEAEYRLYRDLENSPRAIPFLPKEFKIPLVQVYH
notes: AtGALT29A, Arabidopsis thaliana, locus At1g08280; full-length cDNA without stop codon; Two copies that differ only in the tag were used in the FRET experiments: mCer3-HA (donor) and YFP-HA (acceptor); They are kept as one molecule so that the homodimer row has the protein with itself; The label in each row tells which copy was meant; also called AtGALT29A-mCer3; AtGALT29A-YFP; source: N. …
B2: AtGALT31A (Arabidopsis thaliana beta-galactosyltransferase 1 from family GT31, At1g32930), C-terminal mCer3-HA or YFP-HA fusion (enzyme, UniProt Q9MAP8 1-399, looked up)
chain: MGMGRYQKSATSGVSARWVFVLCISSFLLGVLVVNRLLASFETVDGIERASPEQNDQSRSLNPLVDCESKEGDILSRVSHTHDVIKTLDKTISSLEVELATARAARSDGRDGSPAVAKTVADQSKIRPRMFFVMGIMTAFSSRKRRDSIRGTWLPKGDELKRLETEKGIIMRFVIGHSSSPGGVLDHTIEAEEEQHKDFFRLNHIEGYHELSSKTQIYFSSAVAKWDADFYIKVDDDVHVNLGMLGSTLARHRSKPRVYIGCMKSGPVLAQKGVKYHEPEYWKFGEEGNKYFRHATGQIYAISKDLATYISVNRQLLHKYANEDVSLGSWFIGLDVEHIDDRSLCCGTPLDCEWKGQAGNPCAASFDWSCSGICKSVDRMLEVHQRCGEGDGAIWHSSF
notes: AtGALT31A, Arabidopsis thaliana, locus At1g32930; full-length cDNA without stop codon; Two copies that differ only in the tag were used in the FRET experiments: mCer3-HA (donor) and YFP-HA (acceptor); They are kept as one molecule so that the homodimer row has the protein with itself; also called AtGALT31A-mCer3; AtGALT31A-YFP; source: N. benthamiana leaves, Agrobacterium-infiltrated, transient …

Tests used:
Test in all cases: FRET or BRET; acceptor photobleaching FRET, mCer3 donor and YFP acceptor, co-expressed in N. benthamiana leaf epidermal cells; Golgi ROIs, pixel-by-pixel FRET efficiency
[1] = biological target: B2; conditions: partners not purified
[2] = biological target: the molecule itself
[3] = biological target: B1; conditions: partners not purified

B1
FRET efficiency [1]: 18%
FRET efficiency [2]: 34%

B2
FRET efficiency [3]: 29%
FRET efficiency [2]: 19%
